Measurements published in PMC9952706.

Biological target: T1, AdpA (His-tagged) (Streptomyces coelicolor M145) (UniProt Q9L062)
T1 sequence: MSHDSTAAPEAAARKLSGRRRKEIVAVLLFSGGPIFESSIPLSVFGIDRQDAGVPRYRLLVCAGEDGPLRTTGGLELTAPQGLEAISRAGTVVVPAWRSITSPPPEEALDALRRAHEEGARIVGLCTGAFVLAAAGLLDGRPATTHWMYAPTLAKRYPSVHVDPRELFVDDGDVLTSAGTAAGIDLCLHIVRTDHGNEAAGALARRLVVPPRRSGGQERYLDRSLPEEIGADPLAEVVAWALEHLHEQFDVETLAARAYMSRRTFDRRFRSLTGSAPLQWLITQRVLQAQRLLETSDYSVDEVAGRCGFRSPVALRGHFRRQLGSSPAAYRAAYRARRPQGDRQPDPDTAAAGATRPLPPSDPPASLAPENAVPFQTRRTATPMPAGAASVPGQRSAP
Test: EMSA
Conditions: EMSA: 20 mM Tris-HCl pH 8.0, 2 mM EDTA, 20 mM KCl, 0.5 mM DTT, 4% Ficoll-400, 2 µg poly(dI-dC), room temperature, 25 min; 20 nM probe

Sequence | binding
GCGGCAGATCAGGACCCTCCAGGACTTCGGGTTCGACCTGGAGGAGACCCGCCCCTTCGTGGAGTGCCTGCGCGCCGGGCACCCGGAGGGCGACTCCTGTCCGGCGTCCCTCGTGGTCTACCGGCGCAAGCTGGCCGAGCTGGACACGCTGATCGAGCAGCTCACGTCGGTGCGCGCGCAGGTCGCCGCACAGCTGACGCGGGCCGAGGCGGCGGCTCCGGGGGGTCCGGAGCCCAAGTGCGAACTGGGAGGACACGGATGAAGACCAGCGGGGTGCCCGAGGTGACGGACGCGGACTT (double strand) [trxA2 (sco5438) promoter probe] | binds
TCATGGGCGCGCGTCCTGCGCACGCCGCCGGTTCGGTACTCCGAAGGTGCAGCGTCCGCGGAGCCGCGGAGATTCCCGCCCACCGTCGCATTTCGGCCACGCGAGGGCCCGGCGAGTGATGAGGATCTCGCCGCACACGGGCACCAAGGCTGGTA (double strand) [trxA5 (sco1084) promoter probe] | binds
